Residue numbers refer to the chain shown, from its start. In names and notes the source's numbering stands. Several values for one entry are separate records, joined by “and”; a condition that tells them apart may be missing. Equal entries are not always repeated.
Tests used:
[1] = tested on: SNAP-tagged mGluR2 and mGluR3 constructs; assay: Surface expression measurements; type: cell-based, rat; conditions: construct; single measurements
Description: ImageJ was used to analyze fluorescence intensity of cell clusters. […] Fluorescence intensity values for each construct were normalized to wild-type values for comparison.

mGluR2 = mGluR2 (Rattus norvegicus, UniProt P31421); assay: Inter-LBD FRET (N-terminal SNAP-tags), live cells; conditions: SNAP-mGluR2
mGluR2-3xTM4 = mGluR2-3xTM4 (Rattus norvegicus, UniProt P31421, A677S/A681F/A685G); assay: Inter-LBD FRET (N-terminal SNAP-tags), live cells; conditions: SNAP-mGluR2-3xTM4
Sequence of mGluR2-3xTM4 (P31421 19-872 A677S/A681F/A685G): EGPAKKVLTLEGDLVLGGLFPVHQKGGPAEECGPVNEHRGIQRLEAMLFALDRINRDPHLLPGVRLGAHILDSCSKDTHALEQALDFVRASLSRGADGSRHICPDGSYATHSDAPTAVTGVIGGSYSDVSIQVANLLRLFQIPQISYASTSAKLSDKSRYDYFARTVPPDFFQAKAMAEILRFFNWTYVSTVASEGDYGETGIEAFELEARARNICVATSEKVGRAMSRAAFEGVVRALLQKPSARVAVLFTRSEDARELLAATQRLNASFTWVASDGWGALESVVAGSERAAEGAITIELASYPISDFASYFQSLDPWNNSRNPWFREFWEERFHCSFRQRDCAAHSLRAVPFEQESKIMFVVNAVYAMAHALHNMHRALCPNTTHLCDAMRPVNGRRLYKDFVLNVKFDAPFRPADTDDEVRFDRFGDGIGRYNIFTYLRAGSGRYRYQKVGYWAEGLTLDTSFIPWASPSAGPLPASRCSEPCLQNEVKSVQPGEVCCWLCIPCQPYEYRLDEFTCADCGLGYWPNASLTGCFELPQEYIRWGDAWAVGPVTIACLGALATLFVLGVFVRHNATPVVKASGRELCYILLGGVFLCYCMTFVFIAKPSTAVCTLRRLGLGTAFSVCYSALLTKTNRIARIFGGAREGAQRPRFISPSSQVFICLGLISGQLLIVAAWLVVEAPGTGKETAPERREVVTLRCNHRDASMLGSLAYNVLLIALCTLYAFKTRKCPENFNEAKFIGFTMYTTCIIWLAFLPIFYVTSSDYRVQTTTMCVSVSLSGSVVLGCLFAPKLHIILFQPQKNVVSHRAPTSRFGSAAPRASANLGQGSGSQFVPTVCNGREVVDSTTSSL

mGluR3 = mGluR3 (Rattus norvegicus, UniProt P31422); assay: Inter-LBD FRET (N-terminal SNAP-tags), live cells; conditions: SNAP-mGluR3

B1: SNAP-mGluR3-I788A (protein, UniProt Q14832 23-879, looked up, variant I788A)
Metabotropic glutamate …: LGDHNFLRREIKIEGDLVLGGLFPINEKGTGTEECGRINEDRGIQRLEAMLFAIDEINKDDYLLPGVKLGVHILDTCSRDTYALEQSLEFVRASLTKVDEAEYMCPDGSYAIQENIPLLIAGVIGGSYSSVSIQVANLLRLFQIPQISYASTSAKLSDKSRYDYFARTVPPDFYQAKAMAEILRFFNWTYVSTVASEGDYGETGIEAFEQEARLRNICIATAEKVGRSNIRKSYDSVIRELLQKPNARVVVLFMRSDDSRELIAAASRANASFTWVASDGWGAQESIIKGSEHVAYGAITLELASQPVRQFDRYFQSLNPYNNHRNPWFRDFWEQKFQCSLQNKRNHRRVCDKHLAIDSSNYEQESKIMFVVNAVYAMAHALHKMQRTLCPNTTKLCDAMKILDGKKLYKDYLLKINFTAPFNPNKDADSIVKFDTFGDGMGRYNVFNFQNVGGKYSYLKVGHWAETLSLDVNSIHWSRNSVPTSQCSDPCAPNEMKNMQPGDVCCWICIPCEPYEYLADEFTCMDCGSGQWPTADLTGCYDLPEDYIRWEDAWAIGPVTIACLGFMCTCMVVTVFIKHNNTPLVKASGRELCYILLFGVGLSYCMTFFFIAKPSPVICALRRLGLGSSFAICYSALLTKTNCIARIFDGVKNGAQRPKFISPSSQVFICLGLILVQIVMVSVWLILEAPGTRRYTLAEKRETVILKCNVKDSSMLISLTYDVILVILCTVYAFKTRKCPENFNEAKFIGFTMYTTCIIWLAFLPAFYVTSSDYRVQTTTMCISVSLSGFVVLGCLFAPKVHIILFQPQKNVVTHRLHLNRFSVSGTGTTYSQSSASTYVPTVCNGREVLDSTTSSL
modifications: N-terminal SNAP tag
B1 was tested, and the “Surface Expression” value [1] was 1.08 and 0.88 and 0.76 and 0.68 and 0.70 and 0.97 and 0.75.

B2: SNAP-mGluR2 (protein)
chain: EGPAKKVLTLEGDLVLGGLFPVHQKGGPAEECGPVNEHRGIQRLEAMLFALDRINRDPHLLPGVRLGAHILDSCSKDTHALEQALDFVRASLSRGADGSRHICPDGSYATHSDAPTAVTGVIGGSYSDVSIQVANLLRLFQIPQISYASTSAKLSDKSRYDYFARTVPPDFFQAKAMAEILRFFNWTYVSTVASEGDYGETGIEAFELEARARNICVATSEKVGRAMSRAAFEGVVRALLQKPSARVAVLFTRSEDARELLAATQRLNASFTWVASDGWGALESVVAGSERAAEGAITIELASYPISDFASYFQSLDPWNNSRNPWFREFWEERFHCSFRQRDCAAHSLRAVPFEQESKIMFVVNAVYAMAHALHNMHRALCPNTTHLCDAMRPVNGRRLYKDFVLNVKFDAPFRPADTDDEVRFDRFGDGIGRYNIFTYLRAGSGRYRYQKVGYWAEGLTLDTSFIPWASPSAGPLPASRCSEPCLQNEVKSVQPGEVCCWLCIPCQPYEYRLDEFTCADCGLGYWPNASLTGCFELPQEYIRWGDAWAVGPVTIACLGALATLFVLGVFVRHNATPVVKASGRELCYILLGGVFLCYCMTFVFIAKPSTAVCTLRRLGLGTAFSVCYSALLTKTNRIARIFGGAREGAQRPRFISPASQVAICLALISGQLLIVAAWLVVEAPGTGKETAPERREVVTLRCNHRDASMLGSLAYNVLLIALCTLYAFKTRKCPENFNEAKFIGFTMYTTCIIWLAFLPIFYVTSSDYRVQTTTMCVSVSLSGSVVLGCLFAPKLHIILFQPQKNVVSHRAPTSRFGSAAPRASANLGQGSGSQFVPTVCNGREVVDSTTSSL
modifications: SNAP tag labelled with BG-LD555 (BG-LD655 in two-colour SiMPull); left off: HA, N-terminal, kept | SNAP, N-terminal, kept
For B2, the “Basal LBD FRET (%)” value (mGluR2) was 0%.

B3: SNAP-mGluR2-3xTM4 (protein)
chain: B2 chain with A659S, A663F, A667G
modifications: SNAP tag labelled with BG-LD555; left off: HA, N-terminal, kept | SNAP, N-terminal, kept
In the case of B3, the “Basal LBD FRET (%)” value (mGluR2-3xTM4) is reported as 0%.

B4: SNAP-mGluR3 (protein)
chain: LGDHNFMRREIKIEGDLVLGGLFPINEKGTGTEECGRINEDRGIQRLEAMLFAIDEINKDNYLLPGVKLGVHILDTCSRDTYALEQSLEFVRASLTKVDEAEYMCPDGSYAIQENIPLLIAGVIGGSYSSVSIQVANLLRLFQIPQISYASTSAKLSDKSRYDYFARTVPPDFYQAKAMAEILRFFNWTYVSTVASEGDYGETGIEAFEQEARLRNICIATAEKVGRSNIRKSYDSVIRELLQKPNARVVVLFMRSDDSRELIAAANRVNASFTWVASDGWGAQESIVKGSEHVAYGAITLELASHPVRQFDRYFQSLNPYNNHRNPWFRDFWEQKFQCSLQNKRNHRQVCDKHLAIDSSNYEQESKIMFVVNAVYAMAHALHKMQRTLCPNTTKLCDAMKILDGKKLYKEYLLKINFTAPFNPNKGADSIVKFDTFGDGMGRYNVFNLQQTGGKYSYLKVGHWAETLSLDVDSIHWSRNSVPTSQCSDPCAPNEMKNMQPGDVCCWICIPCEPYEYLVDEFTCMDCGPGQWPTADLSGCYNLPEDYIKWEDAWAIGPVTIACLGFLCTCIVITVFIKHNNTPLVKASGRELCYILLFGVSLSYCMTFFFIAKPSPVICALRRLGLGTSFAICYSALLTKTNCIARIFDGVKNGAQRPKFISPSSQVFICLGLILVQIVMVSVWLILETPGTRRYTLPEKRETVILKCNVKDSSMLISLTYDVVLVILCTVYAFKTRKCPENFNEAKFIGFTMYTTCIIWLAFLPIFYVTSSDYRVQTTTMCISVSLSGFVVLGCLFAPKVHIVLFQPQKNVVTHRLHLNRFSVSGTATTYSQSSASTYVPTVCNGREVLDSTTSSL
modifications: SNAP tag labelled with BG-LD555 (BG-LD655 in two-colour SiMPull); left off: HA, N-terminal, kept | SNAP, N-terminal, kept
For B4, the “Basal LBD FRET (%)” value (mGluR3) was 20% and 30% and 23% and 24%.

B5: SNAP-mGluR3-C127A-I788A (protein)
chain: B4 chain with C105A, I766A
modifications: SNAP tag labelled with BG-LD555; left off: HA, N-terminal, kept | SNAP, N-terminal, kept
B5 was tested, and the “Surface Expression” value [1] was 1.29 and 0.91 and 1.30 and 0.67 and 0.74 and 0.86 and 1.22 and 0.70.

Reference: paper PMC8102066 (eLife, 2021)
